Reference: patent US20260201008A1, “SECRETIN-DERIVED GLP1R SELECTIVE AGONISTS” (GUBRA A/S, priority 2023, published 2026)
Where two headings read alike, the source gives them in different places. Numbered stars: 1 amine (or outer) side, 2 acyl side, 3 side chain; on linkers, the order of the positions; unused ones are H or OH. Square brackets hold non-standard residues; d marks the D form. Side chains are listed from the residue outwards. Ends that are not written are not given here. * marks the point of attachment. C20 diacid = O=C(O)CCCCCCCCCCCCCCCCCCC(=O)*; γGlu = O=C(O)[C@H](CCC(=O)[*:2])N[*:1]; AEEA = NCCOCCOCC(=O)O; Aib = CC(C)(N)C(=O)O

How the values were obtained:
Test in all cases: cell-based or functional assay
[1] = molecular target: T1, human secretin receptor (hSCTR) (human, UniProt P47872 23-440)
T1 sequence (P47872 23-440): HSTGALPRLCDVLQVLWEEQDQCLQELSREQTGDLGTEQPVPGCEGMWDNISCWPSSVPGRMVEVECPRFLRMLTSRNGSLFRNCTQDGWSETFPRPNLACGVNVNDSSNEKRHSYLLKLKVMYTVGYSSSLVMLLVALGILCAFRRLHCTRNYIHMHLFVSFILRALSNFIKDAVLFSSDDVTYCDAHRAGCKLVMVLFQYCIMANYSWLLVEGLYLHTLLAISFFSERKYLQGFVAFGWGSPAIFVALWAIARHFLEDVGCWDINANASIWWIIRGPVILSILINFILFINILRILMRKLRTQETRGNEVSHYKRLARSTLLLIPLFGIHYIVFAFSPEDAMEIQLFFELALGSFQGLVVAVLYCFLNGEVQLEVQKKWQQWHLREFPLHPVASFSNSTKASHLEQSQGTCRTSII

[2] = molecular target: T2, human GLP-1 receptor (hGLP1R) (human, UniProt P43220 24-463)
[3] = molecular target: T1, human secretin receptor (hSCTR); remark: listed apart in the source
[4] = molecular target: T2, human GLP-1 receptor (hGLP1R); remark: listed apart in the source
[5] = molecular target: T1, human secretin receptor (hSCTR); remark: listed apart in the source
[6] = molecular target: T2, human GLP-1 receptor (hGLP1R); remark: listed apart in the source

Row | Binder | hSCTR EC50 nM (purified peptide) [1] | hSCTR pEC50 (purified peptide) [1] | hGLPR1 EC50 nM (purified peptide) [2] | hGLPR1 PEC50 (purified peptide) [2] | pEC50 hSCTR [3] | PEC50 hGLPR1 [4] | pEC50 hSCTR [5] | pEC50 hGLPR1 [6]
1 | H[Aib]EGTFTSDVSYLLEEA[Aib]LQRFLEK([AEEA-AEEA-γGlu-C20 diacid])LVEAA-NH2 (N-terminus assumed; SMILES CC(C)C[C@H](NC(=O)[C@H](CC(C)C)NC(=O)[C@H](Cc1ccc(O)cc1)NC(=O)[C@H](CO)NC(=O)[C@@H](NC(=O)[C@H](CC(=O)O)NC(=O)[C@H](CO)NC(=O)[C@@H](NC(=O)[C@H](Cc1ccccc1)NC(=O)[C@@H](NC(=O)CNC(=O)[C@H](CCC(=O)O)NC(=O)C(C)(C)NC(=O)[C@@H](N)Cc1c[nH]cn1)[C@@H](C)O)[C@@H](C)O)C(C)C)C(=O)N[C@@H](CCC(=O)O)C(=O)N[C@@H](CCC(=O)O)C(=O)N[C@@H](C)C(=O)NC(C)(C)C(=O)N[C@@H](CC(C)C)C(=O)N[C@@H](CCC(N)=O)C(=O)N[C@@H](CCCNC(=N)N)C(=O)N[C@@H](Cc1ccccc1)C(=O)N[C@@H](CC(C)C)C(=O)N[C@@H](CCC(=O)O)C(=O)N[C@@H](CCCCNC(=O)COCCOCCNC(=O)COCCOCCNC(=O)CC[C@H](NC(=O)CCCCCCCCCCCCCCCCCCC(=O)O)C(=O)O)C(=O)N[C@@H](CC(C)C)C(=O)N[C@H](C(=O)N[C@@H](CCC(=O)O)C(=O)N[C@@H](C)C(=O)N[C@@H](C)C(N)=O)C(C)C) [SEQ ID NO: 213] | 890 nM | 6.1 -log M | 0.014 nM | 10.9 -log M | 6 -log M | 10.8 -log M |  | 
2 | H[Aib]EGTFTSDLSELLEGAALQRFIQWLV-NH2 (N-terminus assumed; SMILES CC[C@H](C)[C@H](NC(=O)[C@H](Cc1ccccc1)NC(=O)[C@H](CCCNC(=N)N)NC(=O)[C@H](CCC(N)=O)NC(=O)[C@H](CC(C)C)NC(=O)[C@H](C)NC(=O)[C@H](C)NC(=O)CNC(=O)[C@H](CCC(=O)O)NC(=O)[C@H](CC(C)C)NC(=O)[C@H](CC(C)C)NC(=O)[C@H](CCC(=O)O)NC(=O)[C@H](CO)NC(=O)[C@H](CC(C)C)NC(=O)[C@H](CC(=O)O)NC(=O)[C@H](CO)NC(=O)[C@@H](NC(=O)[C@H](Cc1ccccc1)NC(=O)[C@@H](NC(=O)CNC(=O)[C@H](CCC(=O)O)NC(=O)C(C)(C)NC(=O)[C@@H](N)Cc1c[nH]cn1)[C@@H](C)O)[C@@H](C)O)C(=O)N[C@@H](CCC(N)=O)C(=O)N[C@@H](Cc1c[nH]c2ccccc12)C(=O)N[C@@H](CC(C)C)C(=O)N[C@H](C(N)=O)C(C)C) [SEQ ID NO: 224] |  |  |  |  |  |  | 8.8 -log M | 10.9 -log M
3 | H[Aib]EGTFTSDLS[Aib]LLEGAALQRFIQWLV-NH2 (N-terminus assumed; SMILES CC[C@H](C)[C@H](NC(=O)[C@H](Cc1ccccc1)NC(=O)[C@H](CCCNC(=N)N)NC(=O)[C@H](CCC(N)=O)NC(=O)[C@H](CC(C)C)NC(=O)[C@H](C)NC(=O)[C@H](C)NC(=O)CNC(=O)[C@H](CCC(=O)O)NC(=O)[C@H](CC(C)C)NC(=O)[C@H](CC(C)C)NC(=O)C(C)(C)NC(=O)[C@H](CO)NC(=O)[C@H](CC(C)C)NC(=O)[C@H](CC(=O)O)NC(=O)[C@H](CO)NC(=O)[C@@H](NC(=O)[C@H](Cc1ccccc1)NC(=O)[C@@H](NC(=O)CNC(=O)[C@H](CCC(=O)O)NC(=O)C(C)(C)NC(=O)[C@@H](N)Cc1c[nH]cn1)[C@@H](C)O)[C@@H](C)O)C(=O)N[C@@H](CCC(N)=O)C(=O)N[C@@H](Cc1c[nH]c2ccccc12)C(=O)N[C@@H](CC(C)C)C(=O)N[C@H](C(N)=O)C(C)C) [SEQ ID NO: 223] |  |  |  |  |  |  | 8.3 -log M | 10.2 -log M
